Data taken from PMC10444810, “Induction of open-form bile canaliculus formation by hepatocytes for evaluation of biliary drug excretion” (Communications Biology, 2023).
Values joined by “and” are separate entries in the source; they are usually repeats but may differ in a detail not shown here. Equal values may be shown once.

B1: claudin-9: human claudin-9 protein from E. coli cell-free synthesis, coated on the permeable support (protein, UniProt O95484 1-217, looked up)
Claudin-9: MASTGLELLGMTLAVLGWLGTLVSCALPLWKVTAFIGNSIVVAQVVWEGLWMSCVVQSTGQMQCKVYDSLLALPQDLQAARALCVIALLLALLGLLVAITGAQCTTCVEDEGAKARIVLTAGVILLLAGILVLIPVCWTAHAIIQDFYNPLVAEALKRELGASLYLGWAAAALLMLGGGLLCCTCPPPQVERPRGPRLGYSIPSRSGASGLDKRDYV
B2: claudin-2: human claudin-2 protein from E. coli cell-free synthesis, coated on the permeable support (protein, UniProt P57739 1-230, looked up)
Claudin-2: MASLGLQLVGYILGLLGLLGTLVAMLLPSWKTSSYVGASIVTAVGFSKGLWMECATHSTGITQCDIYSTLLGLPADIQAAQAMMVTSSAISSLACIISVVGMRCTVFCQESRAKDRVAVAGGVFFILGGLLGFIPVAWNLHGILRDFYSPLVPDSMKFEIGEALYLGIISSLFSLIAGIILCFSCSSQRNRSNYYDAYQAQPLATRSSPRPGQPPKVKSEFNSYSLTGYV
B3: claudin-3: human claudin-3 protein from E. coli cell-free synthesis, coated on the permeable support (protein, UniProt O15551 1-220, looked up)
Claudin-3: MSMGLEITGTALAVLGWLGTIVCCALPMWRVSAFIGSNIITSQNIWEGLWMNCVVQSTGQMQCKVYDSLLALPQDLQAARALIVVAILLAAFGLLVALVGAQCTNCVQDDTAKAKITIVAGVLFLLAALLTLVPVSWSANTIIRDFYNPVVPEAQKREMGAGLYVGWAAAALQLLGGALLCCSCPPREKKYTATKVVYSAPRSTGPGASLGTGYDRKDYV

System: primary human hepatocytes / PXB-cells
Assay: Counting hepatocyte bile canaliculi opening to the culture equipment (hemi-lumen formation rate)
Assay type: cell-based
Details: PXB-cells (donor), supports individually coated with each claudin
Method: Transwell^TM permeable support used was coated with 50 μg/ml rat tail collagen I (Corning) in 0.02 N acetic acid at room temperature for 1 h. Transwell^TM was washed twice with PBS, then the in vitro-synthesised claudin-1, -2, -3, and -9 proteins were applied to Transwell^TM at a density of 750 ng/cm^2 each and incubated at room temperature for 1 h. Transwell^TM was washed twice with PBS before seeding cells. Cryopreserved human hepatocytes (Donor ID. HU1663) were purchased from Thermo Fisher Scientific and thawed using CHRM. The hepatocytes were then diluted with WEM containing CM3000. PXB-cells (Donor ID. JFC, and HUM181001B) were obtained from PhoenixBio (Hiroshima, Japan) as described previously. […] PXB-cells were resuspended in 2% DMSO-supplemented hepatocyte growth medium (d-HCGM)[27]. Cryopreserved human hepatocytes and PXB-cells were seeded at a density of 2.1 × 10^5 cells/cm^2 in the protein-coated culture equipment. After 4 h of incubation, the culture medium was replaced with fresh culture medium to remove the unattached cells. After 24 h of incubation, the cells were cultured in d-HCGM supplemented with 250 μg/ml Matrigel. The spent medium was replaced with fresh medium every 3 days. Donor information for the human hepatocytes used is listed in Supplementary Table 2.
To count the open- and closed-type bile canaliculi, MRP2 immunostaining was performed using the Z-stack function of a confocal microscope (LSM710; Carl Zeiss, Oberkochen, Germany). Immunostaining was performed as previously described. The ratio of open-type bile canaliculi to the total number of bile canaliculi was calculated according to Eq. (1), and the value obtained was evaluated as the induction rate of open-type bile canaliculi. Here, Aopen bile canaliculi and Abile canaliculi indicate the number of open-type bile canaliculi and total number of bile canaliculi, respectively.1 Formationrate%=Aopenbilecanaliculi/Abilecanaliculi×100

Molecule | hemi-lumen formation rate
B1 | 35.9 ± 6.4%
B2 | 48.9 ± 12%
B3 | 38.6 ± 8.1%

Same assay, conditions: icHep (JFC), claudin coating, mean of 3

Molecule | Open bile canalicular formation rate (%) Mean
B1 | 35.9%
B2 | 48.9%
B3 | 38.6%

Same assay, conditions: icHep (JFC), claudin coating, single replicate

Molecule | Open bile canalicular formation rate (%)
B1 | 30.3% and 42.9% and 34.5%
B2 | 36.6% and 60.0% and 50.0%
B3 | 34.6% and 33.3% and 48.0%
